What all share (settings): protein: native; tags: N-terminal FLAG; chain copies: 2; label: biotin on forward strand; blunt
Data set [1] has as its target T1, f-PlnC (Lactobacillus plantarum C11, UniProt Q48829 1-247).
T1 sequence: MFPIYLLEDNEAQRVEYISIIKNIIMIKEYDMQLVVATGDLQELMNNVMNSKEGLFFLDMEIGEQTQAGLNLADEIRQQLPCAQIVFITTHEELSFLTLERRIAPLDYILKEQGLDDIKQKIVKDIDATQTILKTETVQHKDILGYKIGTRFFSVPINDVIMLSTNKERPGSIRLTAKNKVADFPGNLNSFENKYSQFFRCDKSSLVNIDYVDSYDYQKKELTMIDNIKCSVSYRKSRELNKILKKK
The experiment in a line: SPR; site 1 (KD1), heterogeneous ligand model; SPR (Biacore 3000, SA chip): 20 mM Tris-HCl pH 8.0, 100 mM NaCl, 5 mM MgCl2, 1 mM EDTA, 0.025% Triton X-100, 25°C; signals corrected by subtraction of control DNA (S8/rc) reference cell, no outcome reported for it.

Another data set addresses T2, f-PlnD (Lactobacillus plantarum C11, UniProt Q48830 1-247).
T2 sequence: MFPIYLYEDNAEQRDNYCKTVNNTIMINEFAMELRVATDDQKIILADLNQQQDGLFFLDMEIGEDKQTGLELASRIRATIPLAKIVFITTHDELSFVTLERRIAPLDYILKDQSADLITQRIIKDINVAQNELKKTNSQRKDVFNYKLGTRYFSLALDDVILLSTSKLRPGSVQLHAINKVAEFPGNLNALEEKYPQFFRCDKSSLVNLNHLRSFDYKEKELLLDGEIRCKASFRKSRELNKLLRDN
The data set is described as above.

Data set [2] deals with T1, f-PlnC. The experiment in a line: SPR; site 1 (KD1), ka fitted locally; SPR (Biacore 3000, SA chip): 20 mM Tris-HCl pH 8.0, 100 mM NaCl, 5 mM MgCl2, 1 mM EDTA, 0.025% Triton X-100, 25°C; signals corrected by subtraction of control DNA (S8/rc) reference cell, no outcome reported for it.
Data set [3] addresses T1, f-PlnC. The experiment in a line: SPR; site 1 (KD1), heterogeneous ligand model; Discussion gives 1e-7 range; SPR (Biacore 3000, SA chip): 20 mM Tris-HCl pH 8.0, 100 mM NaCl, 5 mM MgCl2, 1 mM EDTA, 0.025% Triton X-100, 25°C; signals corrected by subtraction of control DNA (S8/rc) reference cell, no outcome reported for it. Background: Surface plasmon resonance follows binding to a sensor surface in real time, without labels.

Data set [4] addresses T1, f-PlnC. The experiment in a line: SPR; single site, Langmuir 1:1 model; SPR (Biacore 3000, SA chip): 20 mM Tris-HCl pH 8.0, 100 mM NaCl, 5 mM MgCl2, 1 mM EDTA, 0.025% Triton X-100, 25°C; signals corrected by subtraction of control DNA (S8/rc) reference cell, no outcome reported for it.

B1: PplnE (dsDNA)
DNA 1: ATTGGTATTTGACGTTAAGAGAACGTTTTTTTACTTTTATAATTTTTTCA
DNA 2: TGAAAAAATTATAAAAGTAAAAAAACGTTCTCTTAACGTCAAATACCAAT
As usually defined, the Kd is the equilibrium constant for the complex coming apart. High values mean a looser complex, low ones a tighter complex. On to B1, for which, in the data set with f-PlnC [1], the affinity, expressed as Kd, was 210 nM.

B2: PplnJ (dsDNA)
DNA 1: ACTTTCAAGTTACGTTAAATCGATTAAATAGTACGATAACAAATTTAAAA
DNA 2: TTTTAAATTTGTTATCGTACTATTTAATCGATTTAACGTAACTTGAAAGT
Regarding B2, binding in the data set with f-PlnD was put at a Kd of 12000 nM.

B3: PplnG (dsDNA)
DNA 1: GCCTGATGAGGACATTTATCATAAAATTATGTACGTTAATAGATAGTTGG
DNA 2: CCAACTATCTATTAACGTACATAATTTTATGATAAATGTCCTCATCAGGC
B3: the Kd in the data set with f-PlnD came to 14000 nM; with f-PlnC [2], 170 nM.

B4: PplnA (dsDNA)
DNA 1: CATGGTGATTCACGTTTAAATTTAAAAAATGTACGTTAATAGAAATAATT
DNA 2: AATTATTTCTATTAACGTACATTTTTTAAATTTAAACGTGAATCACCATG
With B4, the dissociation constant Kd with f-PlnD and in the data set with f-PlnC [3] was 1500 nM throughout.

B5: PplnAΔL (dsDNA)
DNA 1: CATGGTGATTTTAAAATTTATTTAAAAAATGTACGTTAATAGAAATAATT
DNA 2: AATTATTTCTATTAACGTACATTTTTTAAATAAATTTTAAAATCACCATG
In the data set with f-PlnC [4], B5 yielded a Kd of 300 nM.

B6: PplnM (dsDNA)
DNA 1: TGAATTATTGTACGATAATATCTAAAAATATTACGTTTATAAAAATATCG
DNA 2: CGATATTTTTATAAACGTAATATTTTTAGATATTATCGTACAATAATTCA
As to B6, the results for the Kd in the data set with f-PlnD and with f-PlnC [1] were 560 nM and 380 nM, respectively.

The values are drawn from article PMC2714321, “DNA binding kinetics of two response regulators, PlnC and PlnD, from the bacteriocin regulon of Lactobacillus plantarum C11”.
